Consider 1 substance from article PMC11393077.

This test concerns the target CTD peptide containing two heptad repeats with one Ser5 phosphorylation site. Briefly: fluorescence polarisation. In general terms: Fluorescence polarisation rises when a labelled molecule tumbles more slowly, as on binding a larger partner.

Usually Kd stands for the equilibrium constant for the complex coming apart. High values mean weaker binding, low ones tighter binding.

For the substance “Human prolyl isomerase 1 (PIN1) (from UniProt Q13526 1-163) (enzyme)”, the Kd was 21 µM. That is a double-digit micromolar value.
